Test results published in IntAct's records for PubMed 24352239.

Target: spt16_yeast SPT16 (UniProt P32558)
Sequence (P32558 whole entry): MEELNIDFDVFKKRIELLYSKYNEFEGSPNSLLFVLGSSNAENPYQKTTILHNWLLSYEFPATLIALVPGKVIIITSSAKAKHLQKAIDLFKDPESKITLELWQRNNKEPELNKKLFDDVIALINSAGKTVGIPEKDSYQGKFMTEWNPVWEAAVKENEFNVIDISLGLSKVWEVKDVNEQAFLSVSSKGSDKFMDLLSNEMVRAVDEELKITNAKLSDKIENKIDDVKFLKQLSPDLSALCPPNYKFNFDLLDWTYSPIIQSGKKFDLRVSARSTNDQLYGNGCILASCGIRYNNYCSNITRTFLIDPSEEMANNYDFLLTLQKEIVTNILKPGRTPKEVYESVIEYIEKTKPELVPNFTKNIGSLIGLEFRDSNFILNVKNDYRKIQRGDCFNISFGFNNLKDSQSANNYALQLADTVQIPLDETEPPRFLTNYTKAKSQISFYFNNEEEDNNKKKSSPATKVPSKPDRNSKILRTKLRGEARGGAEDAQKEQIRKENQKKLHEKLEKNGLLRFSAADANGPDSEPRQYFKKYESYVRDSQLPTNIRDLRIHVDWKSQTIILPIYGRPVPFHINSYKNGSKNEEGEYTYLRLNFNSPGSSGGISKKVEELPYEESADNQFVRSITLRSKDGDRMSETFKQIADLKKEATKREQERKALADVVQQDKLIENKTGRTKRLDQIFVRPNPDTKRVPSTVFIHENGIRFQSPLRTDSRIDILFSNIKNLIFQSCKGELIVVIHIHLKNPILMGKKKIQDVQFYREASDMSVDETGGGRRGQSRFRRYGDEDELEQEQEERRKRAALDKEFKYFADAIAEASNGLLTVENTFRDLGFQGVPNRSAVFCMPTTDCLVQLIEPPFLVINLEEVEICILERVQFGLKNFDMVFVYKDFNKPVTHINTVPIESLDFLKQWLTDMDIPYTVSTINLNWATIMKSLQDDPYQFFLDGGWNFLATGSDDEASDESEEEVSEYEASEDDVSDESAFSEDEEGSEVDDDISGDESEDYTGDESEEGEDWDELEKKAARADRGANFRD

With “Histone H2A type 3 (Homo sapiens) (from UniProt Q7L7L0) Q105A” the “effect of a mutation on the interaction” value was “decreasing interaction strength”.
